Numbered stars: 1 amine (or outer) side, 2 acyl side, 3 side chain; on linkers, the order of the positions; unused ones are H or OH. Bridge positions count the residues as written; N and C are the ends. Side chains are listed from the residue outwards. Ends that are not written are not given here. * marks the point of attachment. C20 diacid = O=C(O)CCCCCCCCCCCCCCCCCCC(=O)*; γGlu = O=C(O)[C@H](CCC(=O)[*:2])N[*:1]
T1: human calcitonin receptor (human, UniProt P30988 25-474)
T1 construct: whole, on cells; also called hCTR; hCT
T1 sequence (looked up): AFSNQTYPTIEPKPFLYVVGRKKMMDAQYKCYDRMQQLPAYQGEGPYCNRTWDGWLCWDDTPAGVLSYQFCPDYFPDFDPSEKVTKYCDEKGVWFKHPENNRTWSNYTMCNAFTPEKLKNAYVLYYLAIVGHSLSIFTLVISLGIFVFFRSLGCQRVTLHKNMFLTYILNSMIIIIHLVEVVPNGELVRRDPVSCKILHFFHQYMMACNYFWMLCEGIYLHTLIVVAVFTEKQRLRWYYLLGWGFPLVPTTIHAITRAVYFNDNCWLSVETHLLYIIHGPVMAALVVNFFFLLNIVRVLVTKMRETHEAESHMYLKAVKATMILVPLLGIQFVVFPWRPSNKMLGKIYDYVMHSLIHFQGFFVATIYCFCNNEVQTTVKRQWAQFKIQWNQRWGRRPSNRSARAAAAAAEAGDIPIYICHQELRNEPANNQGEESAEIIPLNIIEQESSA

B1: N^ε1-[(4S)-4-carboxy-4-(19-carboxynonadecanoylamino)butanoyl]-[Arg17,Pro21,Pro27,Arg34]-h-amylin (peptide)
peptide: K([γGlu-C20 diacid])CNTATCATQRLANFLRHSSPNFGAIPSSTNVGRNTY-NH2
modifications: disulfide 2-7; N-terminus assumed
SMILES: CC[C@H](C)[C@H](NC(=O)[C@H](C)NC(=O)CNC(=O)[C@H](Cc1ccccc1)NC(=O)[C@H](CC(N)=O)NC(=O)[C@@H]1CCCN1C(=O)[C@H](CO)NC(=O)[C@H](CO)NC(=O)[C@H](Cc1c[nH]cn1)NC(=O)[C@H](CCCNC(=N)N)NC(=O)[C@H](CC(C)C)NC(=O)[C@H](Cc1ccccc1)NC(=O)[C@H](CC(N)=O)NC(=O)[C@H](C)NC(=O)[C@H](CC(C)C)NC(=O)[C@H](CCCNC(=N)N)NC(=O)[C@H](CCC(N)=O)NC(=O)[C@@H](NC(=O)[C@H](C)NC(=O)[C@@H]1CSSC[C@H](NC(=O)[C@@H](N)CCCCNC(=O)CC[C@H](NC(=O)CCCCCCCCCCCCCCCCCCC(=O)O)C(=O)O)C(=O)N[C@@H](CC(N)=O)C(=O)N[C@@H]([C@@H](C)O)C(=O)N[C@@H](C)C(=O)N[C@@H]([C@@H](C)O)C(=O)N1)[C@@H](C)O)C(=O)N1CCC[C@H]1C(=O)N[C@@H](CO)C(=O)N[C@@H](CO)C(=O)N[C@H](C(=O)N[C@@H](CC(N)=O)C(=O)N[C@H](C(=O)NCC(=O)N[C@@H](CCCNC(=N)N)C(=O)N[C@@H](CC(N)=O)C(=O)N[C@H](C(=O)N[C@@H](Cc1ccc(O)cc1)C(N)=O)[C@@H](C)O)C(C)C)[C@@H](C)O
notes: also called compound 79
B2: N^ε1-[(4S)-4-carboxy-4-(19-carboxynonadecanoylamino)butanoyl]-[Glu14,Arg17,Pro21,Pro27,Pro34,Arg35]-h-amylin (peptide)
peptide: K([γGlu-C20 diacid])CNTATCATQRLAEFLRHSSPNFGAIPSSTNVGPRTY-NH2
modifications: disulfide 2-7; N-terminus assumed
SMILES: CC[C@H](C)[C@H](NC(=O)[C@H](C)NC(=O)CNC(=O)[C@H](Cc1ccccc1)NC(=O)[C@H](CC(N)=O)NC(=O)[C@@H]1CCCN1C(=O)[C@H](CO)NC(=O)[C@H](CO)NC(=O)[C@H](Cc1c[nH]cn1)NC(=O)[C@H](CCCNC(=N)N)NC(=O)[C@H](CC(C)C)NC(=O)[C@H](Cc1ccccc1)NC(=O)[C@H](CCC(=O)O)NC(=O)[C@H](C)NC(=O)[C@H](CC(C)C)NC(=O)[C@H](CCCNC(=N)N)NC(=O)[C@H](CCC(N)=O)NC(=O)[C@@H](NC(=O)[C@H](C)NC(=O)[C@@H]1CSSC[C@H](NC(=O)[C@@H](N)CCCCNC(=O)CC[C@H](NC(=O)CCCCCCCCCCCCCCCCCCC(=O)O)C(=O)O)C(=O)N[C@@H](CC(N)=O)C(=O)N[C@@H]([C@@H](C)O)C(=O)N[C@@H](C)C(=O)N[C@@H]([C@@H](C)O)C(=O)N1)[C@@H](C)O)C(=O)N1CCC[C@H]1C(=O)N[C@@H](CO)C(=O)N[C@@H](CO)C(=O)N[C@H](C(=O)N[C@@H](CC(N)=O)C(=O)N[C@H](C(=O)NCC(=O)N1CCC[C@H]1C(=O)N[C@@H](CCCNC(=N)N)C(=O)N[C@H](C(=O)N[C@@H](Cc1ccc(O)cc1)C(N)=O)[C@@H](C)O)C(C)C)[C@@H](C)O
B3: N^ε1-[(4S)-4-carboxy-4-(19-carboxynonadecanoylamino)butanoyl]-[His14,Arg17,Pro21,Pro27,Arg34]-h-amylin (peptide)
peptide: K([γGlu-C20 diacid])CNTATCATQRLAHFLRHSSPNFGAIPSSTNVGRNTY-NH2
modifications: disulfide 2-7; N-terminus assumed
SMILES: CC[C@H](C)[C@H](NC(=O)[C@H](C)NC(=O)CNC(=O)[C@H](Cc1ccccc1)NC(=O)[C@H](CC(N)=O)NC(=O)[C@@H]1CCCN1C(=O)[C@H](CO)NC(=O)[C@H](CO)NC(=O)[C@H](Cc1c[nH]cn1)NC(=O)[C@H](CCCNC(=N)N)NC(=O)[C@H](CC(C)C)NC(=O)[C@H](Cc1ccccc1)NC(=O)[C@H](Cc1c[nH]cn1)NC(=O)[C@H](C)NC(=O)[C@H](CC(C)C)NC(=O)[C@H](CCCNC(=N)N)NC(=O)[C@H](CCC(N)=O)NC(=O)[C@@H](NC(=O)[C@H](C)NC(=O)[C@@H]1CSSC[C@H](NC(=O)[C@@H](N)CCCCNC(=O)CC[C@H](NC(=O)CCCCCCCCCCCCCCCCCCC(=O)O)C(=O)O)C(=O)N[C@@H](CC(N)=O)C(=O)N[C@@H]([C@@H](C)O)C(=O)N[C@@H](C)C(=O)N[C@@H]([C@@H](C)O)C(=O)N1)[C@@H](C)O)C(=O)N1CCC[C@H]1C(=O)N[C@@H](CO)C(=O)N[C@@H](CO)C(=O)N[C@H](C(=O)N[C@@H](CC(N)=O)C(=O)N[C@H](C(=O)NCC(=O)N[C@@H](CCCNC(=N)N)C(=O)N[C@@H](CC(N)=O)C(=O)N[C@H](C(=O)N[C@@H](Cc1ccc(O)cc1)C(N)=O)[C@@H](C)O)C(C)C)[C@@H](C)O
notes: also called compound 85
B4: N^ε1-[(4S)-4-carboxy-4-(19-carboxynonadecanoylamino)butanoyl]-[Glu14,Arg17,Pro21,Pro27,Arg34,Glu35]-h-amylin (peptide)
peptide: K([γGlu-C20 diacid])CNTATCATQRLAEFLRHSSPNFGAIPSSTNVGRETY-NH2
modifications: disulfide 2-7; N-terminus assumed
SMILES: CC[C@H](C)[C@H](NC(=O)[C@H](C)NC(=O)CNC(=O)[C@H](Cc1ccccc1)NC(=O)[C@H](CC(N)=O)NC(=O)[C@@H]1CCCN1C(=O)[C@H](CO)NC(=O)[C@H](CO)NC(=O)[C@H](Cc1c[nH]cn1)NC(=O)[C@H](CCCNC(=N)N)NC(=O)[C@H](CC(C)C)NC(=O)[C@H](Cc1ccccc1)NC(=O)[C@H](CCC(=O)O)NC(=O)[C@H](C)NC(=O)[C@H](CC(C)C)NC(=O)[C@H](CCCNC(=N)N)NC(=O)[C@H](CCC(N)=O)NC(=O)[C@@H](NC(=O)[C@H](C)NC(=O)[C@@H]1CSSC[C@H](NC(=O)[C@@H](N)CCCCNC(=O)CC[C@H](NC(=O)CCCCCCCCCCCCCCCCCCC(=O)O)C(=O)O)C(=O)N[C@@H](CC(N)=O)C(=O)N[C@@H]([C@@H](C)O)C(=O)N[C@@H](C)C(=O)N[C@@H]([C@@H](C)O)C(=O)N1)[C@@H](C)O)C(=O)N1CCC[C@H]1C(=O)N[C@@H](CO)C(=O)N[C@@H](CO)C(=O)N[C@H](C(=O)N[C@@H](CC(N)=O)C(=O)N[C@H](C(=O)NCC(=O)N[C@@H](CCCNC(=N)N)C(=O)N[C@@H](CCC(=O)O)C(=O)N[C@H](C(=O)N[C@@H](Cc1ccc(O)cc1)C(N)=O)[C@@H](C)O)C(C)C)[C@@H](C)O
B5: N^ε1-[(4S)-4-carboxy-4-(19-carboxynonadecanoylamino)butanoyl]-[Glu14,Arg17,Pro21,Pro27,Pro34,Glu35]-h-amylin (peptide)
peptide: K([γGlu-C20 diacid])CNTATCATQRLAEFLRHSSPNFGAIPSSTNVGPETY-NH2
modifications: disulfide 2-7; N-terminus assumed
SMILES: CC[C@H](C)[C@H](NC(=O)[C@H](C)NC(=O)CNC(=O)[C@H](Cc1ccccc1)NC(=O)[C@H](CC(N)=O)NC(=O)[C@@H]1CCCN1C(=O)[C@H](CO)NC(=O)[C@H](CO)NC(=O)[C@H](Cc1c[nH]cn1)NC(=O)[C@H](CCCNC(=N)N)NC(=O)[C@H](CC(C)C)NC(=O)[C@H](Cc1ccccc1)NC(=O)[C@H](CCC(=O)O)NC(=O)[C@H](C)NC(=O)[C@H](CC(C)C)NC(=O)[C@H](CCCNC(=N)N)NC(=O)[C@H](CCC(N)=O)NC(=O)[C@@H](NC(=O)[C@H](C)NC(=O)[C@@H]1CSSC[C@H](NC(=O)[C@@H](N)CCCCNC(=O)CC[C@H](NC(=O)CCCCCCCCCCCCCCCCCCC(=O)O)C(=O)O)C(=O)N[C@@H](CC(N)=O)C(=O)N[C@@H]([C@@H](C)O)C(=O)N[C@@H](C)C(=O)N[C@@H]([C@@H](C)O)C(=O)N1)[C@@H](C)O)C(=O)N1CCC[C@H]1C(=O)N[C@@H](CO)C(=O)N[C@@H](CO)C(=O)N[C@H](C(=O)N[C@@H](CC(N)=O)C(=O)N[C@H](C(=O)NCC(=O)N1CCC[C@H]1C(=O)N[C@@H](CCC(=O)O)C(=O)N[C@H](C(=O)N[C@@H](Cc1ccc(O)cc1)C(N)=O)[C@@H](C)O)C(C)C)[C@@H](C)O

target: T1, human calcitonin receptor; assay: SPA radioligand competition (125I-calcitonin), membranes of BHK cells with human calcitonin receptor
In short: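 BHK hCTR membranes 35 ng/μL + SPA beads 0.05 mg/well; buffer 50 mM Hepes pH 7.4, 1 mM CaCl2, 5 mM MgCl₂, 0.1% OA, 0.02% Tween20. 120 min, 25° C., shaking. Scintillation count; IC50 by one-site binding competition.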

| Binder | IC50 |
| --- | --- |
| B1 | 36.4 nM |
| B2 | 6.3 nM |
| K([γGlu-C20 diacid])CNTATCATQRLAEFLRHSSPNFGAIPSSTNVGPHTY-NH2 (disulfide 2-7) | 3.8 nM |
| B3 | 80.4 nM |
| B4 | 6.62 nM |
| B5 | 1.86 nM |

target: T1, human calcitonin receptor; assay: ratio of IC50 at human calcitonin receptor to IC50 at human amylin receptor (SPA competition assays)
In short: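 Competition binding by SPA uses membrane preparations (35 ng/μL final) in pH 7.4 Hepes buffer with 1 mM CaCl2 and 5 mM MgCl₂. Incubation lasts 120 min at 25° C, and IC₅₀ comes from one-site fitting.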

| Binder | Ratio hCT/hAmylin binding |
| --- | --- |
| B1 | 46.1 |
| B2 | 38.6 |
| K([γGlu-C20 diacid])CNTATCATQRLAEFLRHSSPNFGAIPSSTNVGPHTY-NH2 (disulfide 2-7) | 21.2 |
| B3 | 91.8 |
| B4 | 28.5 |
| B5 | 13.3 |

— US20140087995A1 (published 2014)
